According to patent publication US20190309072A1 (CYTOMX THERAPEUTICS, published 2019):

T1: human ITGa3 on human-derived cell lines (human, UniProt P26006 33-1051)
T1 construct: whole, on cells; also called ITGa3 on H292 cells
T1 sequence (looked up): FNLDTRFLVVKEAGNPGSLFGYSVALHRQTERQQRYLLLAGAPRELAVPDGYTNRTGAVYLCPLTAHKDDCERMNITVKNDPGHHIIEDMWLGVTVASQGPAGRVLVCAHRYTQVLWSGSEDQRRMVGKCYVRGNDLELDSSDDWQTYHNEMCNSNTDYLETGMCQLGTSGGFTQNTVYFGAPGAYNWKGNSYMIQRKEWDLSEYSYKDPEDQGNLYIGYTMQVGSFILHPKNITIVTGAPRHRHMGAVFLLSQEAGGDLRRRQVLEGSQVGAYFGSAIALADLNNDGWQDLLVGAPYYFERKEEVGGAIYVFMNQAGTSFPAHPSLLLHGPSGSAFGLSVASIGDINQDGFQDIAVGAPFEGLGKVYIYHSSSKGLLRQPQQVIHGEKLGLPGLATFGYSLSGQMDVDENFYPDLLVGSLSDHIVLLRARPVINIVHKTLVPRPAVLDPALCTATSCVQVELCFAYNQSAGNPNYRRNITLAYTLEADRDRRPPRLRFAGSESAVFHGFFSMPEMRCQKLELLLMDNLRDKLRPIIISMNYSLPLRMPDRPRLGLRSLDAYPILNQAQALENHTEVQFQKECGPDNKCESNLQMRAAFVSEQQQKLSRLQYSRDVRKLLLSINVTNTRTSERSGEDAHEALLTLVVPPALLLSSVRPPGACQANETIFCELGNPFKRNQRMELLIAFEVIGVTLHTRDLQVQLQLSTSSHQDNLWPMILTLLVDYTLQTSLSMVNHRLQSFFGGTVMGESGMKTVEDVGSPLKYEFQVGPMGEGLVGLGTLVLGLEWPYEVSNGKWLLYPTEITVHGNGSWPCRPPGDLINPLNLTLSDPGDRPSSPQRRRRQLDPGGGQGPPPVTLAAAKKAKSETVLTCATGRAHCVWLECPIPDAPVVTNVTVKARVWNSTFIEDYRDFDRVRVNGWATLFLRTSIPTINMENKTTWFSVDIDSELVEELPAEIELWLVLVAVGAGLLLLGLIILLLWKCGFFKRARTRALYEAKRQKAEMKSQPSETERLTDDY

T2: mouse ITGa3 on mouse-derived Renca renal carcinoma cells (mouse, UniProt Q62470 33-1053)
T2 construct: whole, on cells
T2 sequence (looked up): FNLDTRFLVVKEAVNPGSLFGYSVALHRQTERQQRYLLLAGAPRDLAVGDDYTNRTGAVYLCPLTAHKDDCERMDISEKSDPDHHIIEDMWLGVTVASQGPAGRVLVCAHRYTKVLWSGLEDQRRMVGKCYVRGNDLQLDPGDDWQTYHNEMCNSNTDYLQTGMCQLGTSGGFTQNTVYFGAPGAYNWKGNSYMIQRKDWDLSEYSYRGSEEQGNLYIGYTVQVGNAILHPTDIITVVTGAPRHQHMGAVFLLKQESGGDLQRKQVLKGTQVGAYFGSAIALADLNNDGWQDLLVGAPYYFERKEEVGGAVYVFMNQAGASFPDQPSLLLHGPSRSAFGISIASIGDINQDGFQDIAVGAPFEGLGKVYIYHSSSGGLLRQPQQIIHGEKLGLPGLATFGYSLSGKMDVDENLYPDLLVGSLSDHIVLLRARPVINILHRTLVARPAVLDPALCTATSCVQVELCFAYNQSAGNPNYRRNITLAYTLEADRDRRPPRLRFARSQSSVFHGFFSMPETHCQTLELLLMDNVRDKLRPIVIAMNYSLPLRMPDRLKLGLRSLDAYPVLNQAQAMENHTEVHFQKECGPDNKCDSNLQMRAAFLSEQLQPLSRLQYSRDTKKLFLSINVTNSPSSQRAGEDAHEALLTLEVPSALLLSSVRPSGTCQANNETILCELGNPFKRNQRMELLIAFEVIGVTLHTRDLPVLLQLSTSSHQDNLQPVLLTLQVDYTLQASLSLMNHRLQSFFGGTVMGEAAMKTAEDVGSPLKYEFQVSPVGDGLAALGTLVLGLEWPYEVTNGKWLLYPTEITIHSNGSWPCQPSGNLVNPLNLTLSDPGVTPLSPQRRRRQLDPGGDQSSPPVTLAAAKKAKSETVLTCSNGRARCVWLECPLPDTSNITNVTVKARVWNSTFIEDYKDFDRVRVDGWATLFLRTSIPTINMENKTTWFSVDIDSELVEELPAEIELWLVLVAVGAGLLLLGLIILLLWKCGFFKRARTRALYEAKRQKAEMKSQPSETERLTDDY


Legend:
[1] = target: T1, human ITGa3 on human-derived cell lines; assay: FACS on HT29 cells; apparent Kd from binding curve
Experimental: (§1) In this study, the binding of the antibodies of the present disclosure to the indicated cell lines were performed using a standard FACS labelling method.

[2] = target: T1, human ITGa3 on human-derived cell lines; assay: FACS on BxPC3 cells; apparent Kd from binding curve
Experimental: as §1

[3] = target: T1, human ITGa3 on human-derived cell lines; assay: FACS on FaDu cells; apparent Kd from binding curve
Experimental: as §1

[4] = target: T1, human ITGa3 on human-derived cell lines; assay: FACS on MDA MB231 cells; apparent Kd from binding curve
Experimental: as §1

[5] = target: T1, human ITGa3 on human-derived cell lines; assay: FACS on MDA MB 231 cells (FIG. 17B); apparent Kd from binding curve
Experimental: In this study, the binding of the antibodies of the present disclosure to the indicated cell lines were performed using a standard FACS labelling method. Briefly, in FIG. 17A cells were labeled with the indicated antibodies of the present disclosure: anti-human ITGa3 antibody drug conjugate (anti-ITGa3 huVM2 Hc2/Lc1-spdb-DM4, “ITGa-DM4”) or an anti-human ITGa3 activatable antibody drug conjugate (anti-ITGA3 Hc2-570-2001-spdb-DM4, “ITGA3-570-2001-DM4”), where the anti-ITGa3 AADC was used with and without activation by a protease that recognized the substrate sequence. In FIG. 17B cells were labeled with the indicated antibodies of the present disclosure: anti-human ITGa3 antibody (anti-ITGa3 huVM2 Hc2T62G/Lc1 antibody, “ITGa3 Ab”) or an anti-human ITGa3 activatable antibody (anti-ITGA3 Hc2T62G-570-2001, “ITGA3-570-2001; anti-ITGA3 Hc2T62G-2331-3001, “ITGA3-2331-3001”) and their corresponding AADCs conjugated to vc-MMAD at the indicated concentrations and subsequently detected with an Alexa Fluor 647 labeled goat anti-human IgG secondary antibody.

[6] = target: T2, mouse ITGa3 on mouse-derived Renca …; assay: FACS on Renca cells; goat anti-human IgG Alexa Fluor 647 secondary
[7] = target: T1, human ITGa3 on human-derived cell lines; assay: FACS on MDA MB231 cells; shift of the ActAb Kd against the ITGa3 Ab Kd
Experimental: as §1

[8] = target: T1, human ITGa3 on human-derived cell lines; assay: FACS on HT29 cells; shift of the ActAb Kd against the ITGa3 Ab Kd
Experimental: as §1

[9] = target: T1, human ITGa3 on human-derived cell lines; assay: FACS on FaDu cells; shift of the ActAb Kd against the ITGa3 Ab Kd
Experimental: as §1

[10] = target: T1, human ITGa3 on human-derived cell lines; assay: FACS on BxPC3 cells; shift of the ActAb Kd against the ITGa3 Ab Kd
Experimental: as §1

[11] = target: T1, human ITGa3 on human-derived cell lines; assay: FACS on H292 cells; goat anti-human IgG Alexa Fluor 647 secondary; used for comparison
Experimental: […], the binding of activatable anti-ITGa3 antibodies of the present disclosure comprising the VH of SEQ ID NO: 7, a VL selected from the VL of SEQ ID NO: 11 and the VL of SEQ ID NO: 12, with a masking moiety selected from the 570 masking moiety (SEQ ID NO: 22) and the 574 masking moiety (SEQ ID NO: 26), and the CM1 substrate comprising the sequence […] (SEQ ID NO: 232) to the H292 cell line was evaluated using a cell-binding FACS assay. The VM2 chimera (VH of SEQ ID NO: 1 and VL of SEQ ID NO: 2) was used for comparison. Using a standard labeling protocol for FACS, cells were labeled with anti-ITGa3 antibody or anti-ITGa3 activatable antibody of the present disclosure at the indicated concentrations, and the bound antibody was detected with a goat anti-human IgG Alexa Fluor 647 secondary antibody.

Binder	Kd [1] [nM]	Kd [2] [nM]	Kd [3] [nM]	Kd [4] [nM]	Kd [5] [nM]	also measured
anti-ITGa3 huVM2 Hc2T62G/Lc1 antibody (antibody, human IgG1, kappa, also called ITGa3 Ab; ITGA3-Ab) heavy: not shown light: DIQMTQSPSSLSASVGDRVTITCSASSSISSNYLHWYQQKPGKVPKLLIYRTSNLASGVPSRFSGSGSGTDYTLTISSLQPEDVATYYCQQGSSIPRFTSGGGTKVEIKRTVAAPSVFIFPPSDEQLKSGTASVVCLLNNFYPREAKVQWKVDNALQSGNSQESVTEQDSKDSTYSLSSTLTLSKADYEKHKVYACEVTHQGLSSPVTKSFNRGEC	0.24	0.77	0.32	0.91	0.906	binding result [6]: no binding
anti-ITGa3 huVM2 Hc2T62G/Lc1 antibody conjugated to vc-MMAD (antibody, human IgG1, kappa, vc-MMAD conjugated to the antibody; chain and residues of attachment not stated, Antibody drug conjugate of m29; also called ITGa3 Ab-MMAD; huVM2 Hc2T62G-MMAD ADC) heavy: not shown light: DIQMTQSPSSLSASVGDRVTITCSASSSISSNYLHWYQQKPGKVPKLLIYRTSNLASGVPSRFSGSGSGTDYTLTISSLQPEDVATYYCQQGSSIPRFTSGGGTKVEIKRTVAAPSVFIFPPSDEQLKSGTASVVCLLNNFYPREAKVQWKVDNALQSGNSQESVTEQDSKDSTYSLSSTLTLSKADYEKHKVYACEVTHQGLSSPVTKSFNRGEC					1.08	
anti-ITGA3 Hc2T62G-570-2001 (antibody, also called ITGa3-ActAb; ITGa3 ActAb) heavy: not shown light: QGQSGQGECKTRQDFEMHDCVYGGGSSGGSISSGLLSGRSDNHGGGSDIQMTQSPSSLSASVGDRVTITCSASSSISSNYLHWYQQKPGKVPKLLIYRTSNLASGVPSRFSGSGSGTDYTLTISSLQPEDVATYYCQQGSSIPRFTSGGGTKVEIKRTVAAPSVFIFPPSDEQLKSGTASVVCLLNNFYPREAKVQWKVDNALQSGNSQESVTEQDSKDSTYSLSSTLTLSKADYEKHKVYACEVTHQGLSSPVTKSFNRGEC	6.03	7.39	4.58	7.42	18	Apparent Masking Efficiency [7]: 8 fold; Apparent Masking Efficiency [8]: 25 fold; Apparent Masking Efficiency [9]: 14 fold; Apparent Masking Efficiency [10]: 10 fold
anti-ITGA3 Hc2T62G-570-2001 conjugated to vc-MMAD (antibody, human IgG1, kappa, vc-MMAD conjugated to the antibody; chain and residues of attachment not stated, also called ITGa3 570-2001-MMAD; ITGa3-570-2001-MMAD) heavy: not shown light: QGQSGQGECKTRQDFEMHDCVYGGGSSGGSISSGLLSGRSDNHGGGSDIQMTQSPSSLSASVGDRVTITCSASSSISSNYLHWYQQKPGKVPKLLIYRTSNLASGVPSRFSGSGSGTDYTLTISSLQPEDVATYYCQQGSSIPRFTSGGGTKVEIKRTVAAPSVFIFPPSDEQLKSGTASVVCLLNNFYPREAKVQWKVDNALQSGNSQESVTEQDSKDSTYSLSSTLTLSKADYEKHKVYACEVTHQGLSSPVTKSFNRGEC					17.5	
VM2 chimera (antibody, V domains shown, Chimera of the mouse VM2 variable domains; also called VM2 chimera anti-ITGa3 antibody) VH: EVQLQESGAELVKPGTSVRLSCKASGYTFTEYIIHWVKQRSGQGLEWIGWFYPESGSVKYNETFKGRATLTADKSSSTVYMELSRLTSEDSAVYFCARHEERDYYGYYAMDYWGQGTSVTVSS VL: DIVMTQTPTTLAASPGEKIIITCSASSSISSNYLHWYQQKPGFSPKLLIYRTSNLASGVPARFSGSGSGTSYSLTIGTMEAEDVATYYCQQGSSIPRFTSGSGTKLEIK						binding result [11]: binds
